The target of one test is T1, integrin α9β1 (Homo sapiens, UniProt P05556+Q13797).
T1 construct: A cDNA encoding the extracellular region of human integrin α9; An expression vector for the extracellular region of integrin β1; ACID coiled-coil (Velcro) peptide; FLAG; BASE coiled-coil (Velcro) peptide; made in house; host or cells: FreeStyle 293 Expression System (293-F cells)
The test can be described thus: Direct integrin binding assay with recombinant integrin α9β1. The following applies: for binding of integrin α9β1 to smaller segments of D2628-S2664: 1 mM MnCl2, FIG. 13; for binding of recombinant integrin α9β1 to coated protein: 1 mM MnCl2, FIG. 7. The text has this:
A cDNA encoding the extracellular region of human integrin α9 was amplified by RT-PCR from total RNA extracted from RD cells and cloned into pBluescript KS(+). After verification of the nucleotide sequence, an error-free cDNA fragment was inserted into pcDNA-ACID-FLAG (Nishiuchi, R., Takagi, J., Hayashi, M., Ido, H., Yagi, Y., Sanzen, N., Tsuji, T., Yamada, M., and Sekiguchi, K. (2006) Matrix Biol. 25, 189-197). An expression vector for the extracellular region of integrin β1 was provided by Dr. Junichi Takagi (Takagi, J., Erickson, H. P., and Springer, T. A. (2001) Nat. Struct. Biol. 8, 412-416). The recombinant integrins were produced using the Freestyle™ 293 Expression System (Invitrogen) and purified as described in the above-mentioned publication Matrix Biol. 25, 189-197, (2006).
An integrin binding assay was performed as described in the above-mentioned publication Matrix Biol. 25, […], (2006). In some experiments, integrins were preincubated with synthetic peptides at various concentrations to evaluate the inhibitory activities of the synthetic peptides. The apparent dissociation constants were determined as described in Nishiuchi, R., Murayama, O., Fujiwara, H., Gu, J., Kawakami. T., Aimoto, S., Wada, Y., and Sekiguchi, K. (2003) J. Biochem, 134, 497-504.
To corroborate the role of integrin α9β1 as an adhesion receptor for polydom, a direct integrin binding assay was performed, using recombinant integrin α9β1. Plates were coated with full-length polydom, pol-N, pol-C, plasma fibronectin (pFN) or cellular fibronectin (cFN), and recombinant integrin α9β1 was added and allowed to bind thereto in the presence of 1 mM MnCl2 or 10 mM EDTA. BSA was used as a negative control. The bound integrin was quantified using a biotinylated anti-Velcro antibody and HRP-conjugated streptavidin.
Integrin α9β1 is known to bind to the third fibronectin type III domain of tenascin-C (TNfn3) and the osteopontin N-terminal half (OPN-Nhalf). These integrin α9β1 ligands were recombinantly expressed as GST fusion proteins and then purified. In the GST fusion proteins, the RGD cell-adhesive motifs were replaced with RAA to nullify their abilities to interact with RGD-binding integrins, such as those containing the αv subunit, Microtiter plates were coated with pol-C (10 nM), GST-TNfn3-RAA (100 nM) or GST-OPN-Nhalf-RAA (100 nM), and integrin α9β1 was added and allowed to bind thereto in the presence of 1 mM MnCl2.
To locate the integrin α9β1-binding site within polydom, a series of five N-terminal deletion mutants of polydom (pol-C, ΔEGF6, ΔPTX, ΔCCP20 and ΔCCP21; see FIG. 9) were constructed. Their binding activities for integrin α9β1 were evaluated in the presence of 1 mM MnCl2 or 10 mM EDTA using microtiter plates coated with these recombinant proteins (10 nM).
Among the 34 CCP domains within polydom, CCP21 is unique because it contains about 40 extra amino acids as compared with the other CCP domains. An assay to examine whether this extra region (hereinafter referred to as “extra segment”) within CCP21 is involved in binding to integrin α9β1 was performed, Microtiter plates were coated with a GST-CCP21 fusion protein, a D2628-S2664 deletion mutant of the GST-CCP21 fusion protein (CCP21ΔD2628-S2664), D2628-S2664 alone (see FIG. 11), pol-C or GST alone, and integrin α9β1 was added and allowed to bind thereto in the presence of 1 mM MnCl2 or 10 mM EDTA.
To further narrow down the region responsible for binding to integrin α9β1, the extra 37-amino acid segment of CCP21 was divided into smaller segments, of which GST fusion proteins were produced. Microtiter plates were coated with eight kinds of segments including CCP21, pol-C and GST alone, and integrin α9β1 was added and allowed to bind thereto in the presence of 1 mM MnCl2 or 10 mM EDTA.
To identify the residues involved in binding to Integrin α9β1, alanine scanning mutants and N-terminal or C-terminal deletion mutants of D2634-L2645 were produced as GST fusion proteins. […]

The test system of another test is RD cells. The experiment in a line: Cell adhesion assay on coated plates (RD cells). It counts as cell-based, human. The settings on record: for promotion of RD cell adhesion: coated 96-well plates, 37° C. for 30 minutes. How it is done: A cell adhesion assay was performed as described in Sato, Y. , Uemura, T., Morimitsu, K., Sato-Nishiuchi, R., Manabe, R., Takagi, J., Yamada, M., and Sekiguchi, K. (2009) J. Biol. Chem. 284, 14524-14536. For an assay involving blocking antibodies, RD cells (human rhabdomyosarcoma cells) were preincubated with monoclonal antibodies of interest at room temperature for 15 minutes and plated on 96-well plates coated with recombinant polydom proteins or fibronectin. The cells were incubated for 30 minutes, washed, fixed with 3.7% formaldehyde, and stained with 0.5% toluidine blue.
The cells were plated on 96-well plates coated with serial diluted concentrations of full-length polydom, pol-N, pol-C or plasma fibronectin (FN) and incubated at 37° C. for 30 minutes. After washing out unattached cells, attached cells were fixed and stained with toluidine blue. The attached cells were counted under a microscope. The assay was performed in triplicate.

In another test the test system is hematopoietic stem cells. The experiment in a line: Proliferation of hematopoietic stem cells on coated plates. It counts as cell-based, mouse. The following applies: peptide 50 μM for 2 hours, then polydom-coated plate, FIG. 20. How it is done:
Bone marrow cells were flushed out from the femurs and tibias of three mice of 6 to 7 weeks of age (C57BL/6J) and dissociated with a 22G needle. The cells were reacted with a biotin-labeled anti-lineage antibody for 30 minutes and subsequently with an anti-blotin antibody-conjugated magnetic beads, and lineage-positive cells were removed by automated magnetic cell sorter autoMACS (Miltenyi Biotec). After staining with PE-CD3, PE-Mac1, PE-Gr1, PE-Ter119, PE-B220, FTTC-Sca1 and APC-c-Kit, a lineage(−) Sca1(+) c-Kit (high) cell fraction was sorted out using FACSAria and used for the experiments described below.
The above-prepared cells were plated on a 48-well plate coated with a recombinant polydom protein or fibronectin. The same type of plate without coating was used as a control. The medium used was RPMI containing 10% fetal calf serum, thrombopoietin (30 ng/ml) and flt3 ligand (100 ng/ml). For the examination of cell proliferation, the cells were plated in duplicate wells for each coating at 1000 cells/well and started to be cultured, and the cell number was counted at the start of culture, and on day 2 and day 3. The remaining cells were divided into three aliquots, plated in wells for each coating, and subjected to FACS analysis on day 3 after the start of culture. For the FACS analysis, staining with an antibody cocktail containing PE-CD3, PE-Mac1, PE-Gr1, PE-Ter119, PE-B220, FITC-Sca1 and APC-c-Kit was performed and FACSCont was used.
The above-prepared cells were divided into three groups and plated on 48-well plates at 5000 cells/well. The medium used was RPMI containing 10% fetal calf serum, thrombopoietin (30 ng/ml) and flt3 ligand (100 ng/ml). For an EDDMMEVPY peptide treatment group, 2 μl of the peptide was added to each well at the final concentration of 50 μM, and for the other two groups, 2 μl of PBS was added to each well. Then, the culture was performed at […] for 2 hours. Subsequently, the cells were transferred to 48-well plates coated with a recombinant polydom protein or fibronectin. The cells cultured in the presence of the peptide were transferred to the recombinant polydom protein-coated plate, and the cells in one of the other two groups were transferred to the recombinant polydom protein-coated plate, and the cells in the remaining group were transferred to the fibronectin-coated plate. The culture was continued for 3 days and the cell numbers were counted on day 2, day 3 and […].

Test [1] has as its target recombinant integrin α9β1 (human, UniProt Q13797 30-981; P05556 21-728). The experiment in a line: inhibition of integrin α9β1 (10 nM) binding to coated pol-C (10 nM) by synthetic peptide, 1 mM MnCl2, 10% DMSO. The protocol:
To further corroborate the role of […] as the integrin α9β1 recognition sequence, an integrin α9β1-pol-C binding inhibition assay was performed using synthetic peptides consisting of the […] sequence or a part of the sequence, Integrin α9β1 (10 nM) was incubated on microtiter plates coated with pol-C (10 nM) in the presence of 1 mM MnCl₂ and various concentrations of the synthetic peptides. To prevent precipitation of the peptides, the assay was performed in the presence of 10% DMSO. Based on the amount of integrin α9β1 bound to pol-C set as 100%, the relative binding amount was calculated.

Where no end group is shown, it is not given here.

Usually IC50 stands for the concentration needed to halve the response being measured.

T1 sequence (Q13797 30-981 limits assumed): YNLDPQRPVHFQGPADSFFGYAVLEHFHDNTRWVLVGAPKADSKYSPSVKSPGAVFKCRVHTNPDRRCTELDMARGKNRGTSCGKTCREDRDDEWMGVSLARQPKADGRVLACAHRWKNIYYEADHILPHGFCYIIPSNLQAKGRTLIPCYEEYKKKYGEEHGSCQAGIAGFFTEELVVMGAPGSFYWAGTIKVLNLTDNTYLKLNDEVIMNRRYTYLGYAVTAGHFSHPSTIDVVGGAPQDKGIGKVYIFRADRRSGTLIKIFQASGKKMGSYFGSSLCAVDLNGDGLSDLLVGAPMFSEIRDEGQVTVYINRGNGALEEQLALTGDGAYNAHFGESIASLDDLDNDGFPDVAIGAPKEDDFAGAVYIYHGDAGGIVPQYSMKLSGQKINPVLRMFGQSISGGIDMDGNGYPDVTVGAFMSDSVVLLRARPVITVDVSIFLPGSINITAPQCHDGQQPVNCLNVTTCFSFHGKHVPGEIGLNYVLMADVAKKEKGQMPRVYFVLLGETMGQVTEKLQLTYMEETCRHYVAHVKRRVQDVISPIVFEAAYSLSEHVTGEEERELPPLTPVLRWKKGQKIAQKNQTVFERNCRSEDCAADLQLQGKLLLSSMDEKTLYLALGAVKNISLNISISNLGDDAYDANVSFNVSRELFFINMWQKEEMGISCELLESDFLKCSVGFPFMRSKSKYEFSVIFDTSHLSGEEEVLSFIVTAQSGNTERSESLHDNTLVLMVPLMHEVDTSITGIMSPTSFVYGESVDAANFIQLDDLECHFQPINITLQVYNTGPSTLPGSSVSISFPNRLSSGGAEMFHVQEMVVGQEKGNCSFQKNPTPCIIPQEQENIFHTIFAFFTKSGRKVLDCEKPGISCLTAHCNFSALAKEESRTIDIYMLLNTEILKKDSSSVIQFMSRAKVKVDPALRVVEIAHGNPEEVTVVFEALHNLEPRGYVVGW
T1 sequence (P05556 21-728 limits assumed): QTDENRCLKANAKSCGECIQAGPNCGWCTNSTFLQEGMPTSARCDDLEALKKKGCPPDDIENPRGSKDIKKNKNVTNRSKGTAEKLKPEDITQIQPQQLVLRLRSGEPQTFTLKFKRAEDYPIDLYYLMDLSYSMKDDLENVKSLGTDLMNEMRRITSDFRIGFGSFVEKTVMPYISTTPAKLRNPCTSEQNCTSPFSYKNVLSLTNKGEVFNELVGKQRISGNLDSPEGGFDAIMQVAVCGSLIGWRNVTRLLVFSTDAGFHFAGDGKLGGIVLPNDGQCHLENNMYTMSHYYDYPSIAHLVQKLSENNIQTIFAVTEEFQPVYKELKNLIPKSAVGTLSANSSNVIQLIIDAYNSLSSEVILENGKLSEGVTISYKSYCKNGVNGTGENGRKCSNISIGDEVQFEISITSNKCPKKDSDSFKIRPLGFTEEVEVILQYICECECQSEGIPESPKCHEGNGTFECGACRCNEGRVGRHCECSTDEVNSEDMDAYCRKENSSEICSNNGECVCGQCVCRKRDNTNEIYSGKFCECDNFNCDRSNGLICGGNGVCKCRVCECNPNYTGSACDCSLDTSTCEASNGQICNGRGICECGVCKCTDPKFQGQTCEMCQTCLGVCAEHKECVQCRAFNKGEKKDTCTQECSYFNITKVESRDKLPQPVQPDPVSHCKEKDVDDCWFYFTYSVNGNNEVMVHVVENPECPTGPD
Chain of recombinant integrin α9β1 (Q13797 30-981, chain 1 of 2): as the sequence (Q13797 30-981 limits assumed) above
Chain of recombinant integrin α9β1 (P05556 21-728, chain 2 of 2): as the sequence (P05556 21-728 limits assumed) above

In the case of “D2634-L2645: 12-amino acid segment in the extra segment of CCP21, GST fusion protein (DQEDDMMEVPYL; also: GST fusion protein)”, the “binding of integrin α9β1 to smaller segments of D2628-S2664” value in the test with integrin α9β1 (GST fusion proteins) is recorded as “bound”.
Same read-out and setting: the result for “D2628-L2645: segment in the N-terminal region of D2628-S2664, GST fusion protein (DGQGHFDQEDDMMEVPYL; also: GST fusion protein)” reads “bound”.
For the molecule “pol-C: C-terminal fragment of polydom, residues 1192 to 3567 of SEQ ID NO: 2, C-terminal His tag”, in the test with RD cells (FIG. 4), the “cell adhesion potency compared with full-length polydom” value is “almost equivalent to that of full-length polydom” and the “promotion of RD cell adhesion” value is on record as “capable of promoting cell adhesion”. Further, in the test with RD cells (microscopic observation, FIG. 5), the “morphology of attached RD cells” value is given as “exhibited spread morphology”. Further, the “binding of recombinant integrin α9β1 to coated protein” value in the test with integrin α9β1 is given as “bound”. Besides, the Kd with integrin α9β1 (pol-C coated at 10 nM, 1 mM MnCl2, three independent determinations, read-out: dissociation constant between integrin α9β1 and ligand) is 32.4 ± 2.7 nM.
For the molecule “D2628-S2664: extra 37-amino acid segment of CCP21, GST fusion (DGQGHFDQEDDMMEVPYLAHPQHLEATAKALENTKES; also: GST fusion)”, the “binding to integrin α9β1 (extra segment of CCP21)” value in the test with integrin α9β1 (GST fusion proteins, 1 mM MnCl2, FIG. 12) was “retained the binding activity”.
“E2641A: alanine substitution of Glu2641 in D2634-L2645, GST fusion protein (DQEDDMMAVPYL; also: GST fusion protein)”: in the test with integrin α9β1 (GST fusion proteins, FIG. 14), the “integrin binding activity of alanine scanning mutants of D2634-L2645” value is “almost completely abrogated the integrin binding activity”.
Turning to EDDMMEVPY [EDDMMEVPY], the “proliferation of hematopoietic stem cells on polydom-coated plate after peptide treatment” value in the test with hematopoietic stem cells (listed as EDDMMEVPY peptide) was “proliferate albeit more slowly than the cells on the fibronectin-coated plate”; with hematopoietic stem cells (listed as peptide consisting of the amino acid sequence represented by SEQ ID NO: 1) it was “canceled”.
As for AEIDGIEL [AEIDGIEL peptide (integrin α9β1 recognition sequence in tenascin-C, synthetic)], the IC50 in test [1] is 7800 nM.

B1: EDDMMEVPY peptide (synthetic) (peptide)
peptide: EDDMMEVPY
notes: Corresponds to Glu2636-Tyr2644 of mouse SVEP1
In the case of B1, the IC50 in test [1] was 180 nM.

B2: pol-N: N-terminal fragment of polydom, residues 18 to 789 of SEQ ID NO: 2, C-terminal His tag (protein, listed as Mus musculus)
chain: WTNFQPVAPSLNFSFRLFPEASPGALGRLAVPPASSEEEAAGSKVERLGRAFRSRVRRLRELSGSLELVFLVDESSSVGQTNFLNELKFVRKLLSDFPVVSTATRVAIVTFSSKNNVVARVDYISTSRAHQHKCALLSREIPAITYRGGGTYTKGAFQQAAQILRHSRENSTKVIFLITDGYSNGGDPRPIAASLRDFGVEIFTFGIWQGNIRELNDMASTPKEEHCYLLHSFEEFEALARRALHEDLPSGSFIQEDMARCSYLCEAGKDCCDRMASCKCGTHTGQFECICEKGYYGKGLQHECTACPSGTYKPEASPGGISTCIPCPDVSHTSPPGSTSPEDCVCREGYQRSGQTCEVVHCPALKPPENGFFIQNTCKNHFNAACGVRCRPGFDLVGSSIHLCQPNGLWSGTESFCRVRTCPHLRQPKHGHISCSTAEMSYNTLCLVTCNEGYRLEGSTRLTCQGNAQWDGPEPRCVERHCATFQKPKGVIISPPSCGKQPARPGMTCQLSCRQGYILSGVREVRCATSGKWSAKVQTAVCKDVEAPQISCPNDIEAKTGEQQDSANVTWQVPTAKDNSGEKVSVHVHPAFTPPYLFPIGDVAITYTATDSSGNQASCTFYIKVIDVEPPVIDWCRSPPPIQVVEKEHPASWDEPQFSDNSGAELVITSSHTQGDMFPHGETVVWYTATDPSGNNRTCDIHIVIKGSPCEVPFTPVNGDFICAQDSAGVNCSLSCKEGYDFTEGSTEKYYCAFEDGIWRPPYSTEWPDCAI
modifications: C-terminal His tag
B2: the “promotion of RD cell adhesion” value with RD cells (FIG. 4) is reported as “only pol-C was capable”. The “binding of recombinant integrin α9β1 to coated protein” value in the test with integrin α9β1 was “not”.
